In publication PMC11242883:

Tests used:
[1] = biological target: eel follicle-stimulating hormone receptor (eel FSHR) on HEK293 cells (eel)
[2] = biological target: eel follicle-stimulating hormone receptor (eel FSHR) on CHO-K1 cells (eel)

Substance: recombinant single-chain (tethered) eel follicle-stimulating hormone, wild type (eel FSH β/α-wt) (ligand)
- pERK1/2 HTRF ratio in HEK293 cells transiently expressing eel FSHR, time course 0-30 min after agonist; peak at 5 min [1]: 7460
- cAMP production (HTRF) in CHO-K1 cells transiently expressing eel FSHR, 30 min, dose-response: EC50 [2]: 0.16 µg/mL

Substance: recombinant single-chain eel follicle-stimulating hormone mutant with the eCG β-subunit CTP linker (amino acids 115–149) between the β-subunit and the α-subunit (eel FSH-M) (from UniProt P08751 135-169) (ligand)
- pERK1/2 HTRF ratio in HEK293 cells transiently expressing eel FSHR, time course 0-30 min after agonist; peak at 5 min [1]: 7090
- cAMP production (HTRF) in CHO-K1 cells transiently expressing eel FSHR, 30 min, dose-response: EC50 [2]: 0.129 µg/mL
